The source of these data is patent US20080194020A1 (MEDICAL AND BIOLOGICAL LABORATORIES, published 2008).

T1: TAP1 (mouse (endogenous in mouse DC2.4 cells), UniProt P21958 1-724)
T1 construct: Endogenous protein in the cell lysate; also called TAP1/2
T1 sequence (looked up): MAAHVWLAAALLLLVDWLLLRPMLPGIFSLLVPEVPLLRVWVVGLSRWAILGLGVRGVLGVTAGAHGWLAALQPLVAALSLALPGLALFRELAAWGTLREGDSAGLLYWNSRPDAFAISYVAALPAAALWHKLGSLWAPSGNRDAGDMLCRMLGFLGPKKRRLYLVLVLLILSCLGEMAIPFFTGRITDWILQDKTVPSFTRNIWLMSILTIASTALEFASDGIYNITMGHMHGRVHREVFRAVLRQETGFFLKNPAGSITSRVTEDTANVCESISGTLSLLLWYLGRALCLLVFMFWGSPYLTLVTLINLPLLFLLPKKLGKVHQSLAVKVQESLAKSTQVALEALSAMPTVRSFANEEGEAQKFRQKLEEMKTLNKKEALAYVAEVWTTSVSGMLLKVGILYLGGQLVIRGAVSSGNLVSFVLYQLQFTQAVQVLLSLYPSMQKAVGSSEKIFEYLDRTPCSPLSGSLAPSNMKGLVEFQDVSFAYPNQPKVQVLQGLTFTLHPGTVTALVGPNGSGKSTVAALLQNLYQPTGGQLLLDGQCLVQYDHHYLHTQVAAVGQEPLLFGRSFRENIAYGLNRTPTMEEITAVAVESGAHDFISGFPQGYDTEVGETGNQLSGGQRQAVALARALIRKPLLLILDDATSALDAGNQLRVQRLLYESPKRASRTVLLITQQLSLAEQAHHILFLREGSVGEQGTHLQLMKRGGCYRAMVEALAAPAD

T2: TAP2 (mouse (endogenous in mouse DC2.4 cells), UniProt P36371 1-702)
T2 construct: Endogenous protein in the cell lysate; also called TAP1/2
T2 sequence (looked up): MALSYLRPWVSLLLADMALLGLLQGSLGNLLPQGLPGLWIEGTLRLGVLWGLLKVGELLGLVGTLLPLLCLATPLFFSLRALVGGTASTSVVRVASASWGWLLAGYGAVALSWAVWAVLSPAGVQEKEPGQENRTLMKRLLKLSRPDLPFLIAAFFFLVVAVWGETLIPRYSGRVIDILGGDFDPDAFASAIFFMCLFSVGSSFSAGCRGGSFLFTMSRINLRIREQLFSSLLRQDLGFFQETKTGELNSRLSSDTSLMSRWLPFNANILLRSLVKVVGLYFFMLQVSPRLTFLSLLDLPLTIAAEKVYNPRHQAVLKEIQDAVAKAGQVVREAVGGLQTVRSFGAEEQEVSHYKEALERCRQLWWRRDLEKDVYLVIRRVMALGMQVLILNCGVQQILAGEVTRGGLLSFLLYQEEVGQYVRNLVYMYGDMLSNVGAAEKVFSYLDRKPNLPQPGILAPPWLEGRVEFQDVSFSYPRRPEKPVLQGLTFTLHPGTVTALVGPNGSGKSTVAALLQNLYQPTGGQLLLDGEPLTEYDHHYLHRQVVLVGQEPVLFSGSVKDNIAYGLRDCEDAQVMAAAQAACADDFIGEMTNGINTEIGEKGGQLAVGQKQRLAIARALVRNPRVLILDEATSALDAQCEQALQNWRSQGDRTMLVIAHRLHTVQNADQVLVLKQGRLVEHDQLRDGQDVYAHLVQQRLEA

B1: CHIP, an E3-ubiquitin ligase (enzyme, mouse (endogenous in mouse DC2.4 cells), UniProt Q9WUD1 1-304, looked up)
chain: MKGKEEKEGGARLGTGGGGSPDKSPSAQELKEQGNRLFVGRKYPEAAACYGRAITRNPLVAVYYTNRALCYLKMQQPEQALADCRRALELDGQSVKAHFFLGQCQLEMESYDEAIANLQRAYSLAKEQRLNFGDDIPSALRIAKKKRWNSIEERRIHQESELHSYLTRLIAAERERELEECQRNHEGHEDDGHIRAQQACIEAKHDKYMADMDELFSQVDEKRKKRDIPDYLCGKISFELMREPCITPSGITYDRKDIEEHLQRVGHFDPVTRSPLTQEQLIPNLAMKEVIDAFISENGWVEDY
B2: biotin-labeled chicken ovalbumin (bOVA) (other, UniProt P01012 2-386, looked up)
chain: GSIGAASMEFCFDVFKELKVHHANENIFYCPIAIMSALAMVYLGAKDSTRTQINKVVRFDKLPGFGDSIEAQCGTSVNVHSSLRDILNQITKPNDVYSFSLASRLYAEERYPILPEYLQCVKELYRGGLEPINFQTAADQARELINSWVESQTNGIIRNVLQPSSVDSQTAMVLVNAIVFKGLWEKAFKDEDTQAMPFRVTEQESKPVQMMYQIGLFRVASMASEKMKILELPFASGTMSMLVLLPDEVSGLEQLESIINFEKLTEWTSSNVMEERKIKVYLPRMKMEEKYNLTSVLMAMGITDVFSSSANLSGISSAESLKISQAVHAAHAEINEAGREVVGSAEAGVDAASVSEEFRADHPFLFCIKHIATNAVLFFGRCVSP
modifications: biotin-labeled (sites not given)

The target in test [1] is B2. Nature of the test: cell-based or functional assay.
Another test addresses T1, TAP1. Briefly: co-immunoprecipitation with anti-TAP1 from DC2.4 lysate, blot with SA-HRP. On the procedure: (§1) DC2.4 cells were incubated with bOVA and subjected to co-immunoprecipitation with anti-Sec61α. bOVA was added at 2.5 mg mL⁻¹ to cell lysates before immunoprecipitation (the two left-hand lanes in each panel).
(§2) 2×10⁷ DC2.4 or BMDC cells were cultured for four hours in a medium containing 10 μM MG-132 in the presence of bOVA at 250 μg mL⁻¹. Cells were lysed in 20 mM HEPES pH7.6 containing 1% digitonin and protease inhibitors to collect biotin-labeled samples. The samples were cleared of impurities in advance using protein G sepharose (Amersham Pharmacia Biotech), and after incubation with antibodies for precipitation (anti-Sec61β, anti Sec61α, anti-VCP, anti-BiP, anti-PDI, anti-calreticulin, anti-TAP1, and anti-TAP2), the immunoprecipitates were collected using protein G. When chicken anti-CHIP antibody was used, immunoprecipitates were collected using a rabbit anti-IgY column (a person, MBL). The precipitated samples were analyzed by SDS-PAGE and Western blotting.

For the next test, the target named is T2, TAP2. Nature of the test: co-immunoprecipitation with anti-TAP2 from DC2.4 lysate, blot with SA-HRP. On the procedure: as §1, §2

Regarding B1, the “polyubiquitination of bOVA in CHIP-knocked-down DC2.4 cells relative to parental cells” value in test [1] was found to be 34%.

Regarding B2, the binding result with TAP1 and with TAP2 was “no binding” each time.
